From the nanobody polyreactivity screen of Harvey et al. (2022)

Assay: yeast display, Sf9 membrane polyspecificity reagent, FACS + sequencing; frameworks hold sequencing errors
Outline: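 Genes from sorted yeast were amplified by colony PCR, read by MiSeq 2 × 250 sequencing and filtered on CDR length. These cells carried a synthetic nanobody library in Saccharomyces cerevisiae BJ5465 and were sorted by FACS into low and high (top ~1%) gates on anti-HA and streptavidin fluorescence. Polyreactivity is labelled according to the gate of origin.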

For “QVQLVESGGGLVQAGGSLRLSCAASGFTFSYNTMGWYRQAPGKERELVAAISRSGGRTYYADSVKGRFTISRDNAKNTVYLQMNSLKPEDTAVYYCARYSVTGYGANSGPEMDYWGQGTQVTVSS”, which “polyreactivity (PSR sort gate)” value is on record?
Its value is “high polyreactivity”.

Which “polyreactivity (PSR sort gate)” value does the source give for “QVQLVESGGGLVQAGGSLRLSCAASGYTFIINAMGWYRQAPGKERELVASISGGGTYYADSVKGRFTISRDNAKNTVYLEMNSLKREDTAVYYCNATRRRKYYKYGGDYWGQGTQVTVSS” here?
The value was “high polyreactivity”.

With “QVQLVESGGGLVQAGGSLRISCAASGRIFLGNAMGWYRQAPGKERELVAAITNGGGSTYYADSVKGRFTISRDNAKNTVYLQMNSLKPEDTAVYYCARGYKKSVQRFEYWGQGTQVTVSS” as the sequence, how does the “polyreactivity (PSR sort gate)” value read?
The value was “high polyreactivity”.

With “QVQLVESGGGLVQAGGSLRLSCAASGRTFFENAMGWYRQAPGKEREFVAAISYNGGSTYYADSVKGRFTISRDNAKNTVYLQMNSLKPEDTAVYYCAAEADGLRYDDNYWGQCTQVTVSS” as the sequence, how does the “polyreactivity (PSR sort gate)” value read?
Its value is “low polyreactivity”.

For “QVQLVESGGGLVQAGGSLRLSCAASGSNSGYYVMGWYRQAPGKERELVAAITWRGGSTYYADSVKGRFTISRDNAKNTVYLQMNSLKPEDTAVYYCARSRYLWYTVPPKYGYWGQGTQVTVSS”, which “polyreactivity (PSR sort gate)” value is on record?
The value was “high polyreactivity”.

For “QLQLVESGGVLVQAGGSLRLSCAASGSTFRYNAMGWYRQAPGKERELVASITWSGGDTYYADSVKGRFTISRDNAKNTVYLQMNSLKPEDTAVYYCAKKGYASRYFIYDYWGQGTQVTVSS”, which “polyreactivity (PSR sort gate)” value is on record?
Its value is “low polyreactivity”.

With “QVQLVESGGGLVQAGGSLRLSCAASGRIFWPYAMGWYRQAPGKERELVAAITSGGSTYYADSVKGRFTISRDNAKNTVYLQMNSLKPEDTAVYYCAKRSSGVSVPVAYGGIKRYNSWGQGTQVTVSS” as the sequence, how does the “polyreactivity (PSR sort gate)” value read?
Its value is “low polyreactivity”.

For “QVQLVESGGGLVQAGGSLRLSCAPSGGTFWIYAMGWYRQAPGKERELVAGITTSGATTYYADSVKGRFTISRDNAKNTVYLQMNSLKPEDTAVYYCAAVIRPRYYQVRPRYDYWGQGTQVTVSS”, which “polyreactivity (PSR sort gate)” value is on record?
The value was “low polyreactivity”.

With “QVQLVESGGGLVQAGGSLRLSCAASGFTFRRYAMGWYRQAPGKERELVATITIGGSTSYADSVKGRFTISRDNAKNTVYLQMNSLKPEDTAVYYCAAVANPNRYRFDYWGQGSQVTVSS” as the sequence, how does the “polyreactivity (PSR sort gate)” value read?
Its value is “high polyreactivity”.

For “QVQLVESGGGLVQAGGSLPLSCAASGFIYGGNAMGWYRQAPGKERELVAAISKSGGRTYYADSVKGRFTISRDNAKNTVYLQMNSLKPEDTAVYYCAAVPGRTAEDYGEDYWGQGTEVTVSS”, which “polyreactivity (PSR sort gate)” value is on record?
Its value is “high polyreactivity”.

With “QVQLVESGGGLVQAGGSLRLSCAASGIIFRWYTMGWYRQAPGKEREVVAAITGRGGSTYYADSVKGRFTISRDNAKNTVYLQMNSLKPEDSAVYYCAAQYSYPTPYRTYEYDYWGQGTQVTVSS” as the sequence, how does the “polyreactivity (PSR sort gate)” value read?
The value was “high polyreactivity”.

With “QVQLVESGGGLVQEGGSLSLSCAASGLTFTGNAMAWYRQAPGKEREFVAAIRWSAGSTYYADSVKGRFTISRDNAKNTVYLQMNSLKPEDTAVYYCYAALNVSGHYPNDYCGQGTQVTVSS” as the sequence, how does the “polyreactivity (PSR sort gate)” value read?
The value was “low polyreactivity”.

Which “polyreactivity (PSR sort gate)” value does the source give for “QVQLVESGGGLVQAGGSLRLSCAASGSTFGSNAMGWYRPAPGKERELVAAITYSGGRTYYADSVKGRFTISRDNAKNTVYLQMNSLKPEDTAVYYCAATFGFFYYQYDYWGQGTQVTVSS” here?
The value was “low polyreactivity”.

For “QVQLVESGGGLVQAGGSLRLSCAASGSILVNAIGWYRQAPGKEREFVAAISSGGSTKYADSVKGRFTMSRDNATNTDYLLMNSLKPEDTEVYYCAARVVTSRLSGGTTHPFILYYWGQGTQVTVSS”, which “polyreactivity (PSR sort gate)” value is on record?
The value was “high polyreactivity”.

Which “polyreactivity (PSR sort gate)” value does the source give for “QVQLVESGGGLVQAGGSLRLSCAASGFTFLYNVMGWYRQAPGKERELVAAISQSGTDTYYADSVKGRFTISRDNAKNTVYLQMNSLKPEDTAVYYCATEYYSQPRDDSWGQGTQVTVSS” here?
The value was “low polyreactivity”.

For “QVQLVESGGGLVQAGCSLRLSCAASGRTFRYYAMGWYRQAPGKERELVAAISGRGGSTYYADSVKGRFTISRDNAKNTVYFQMNSLKPEDTAVYYCADSFYSIRYDYWGQGTQVTVSS”, which “polyreactivity (PSR sort gate)” value is on record?
Its value is “high polyreactivity”.

With “QVQLVESGGGLVQAGGSLRLSCAASGRTFYDNAMGWYRQAPGKERELVAVISRSGSTYYADSVKGRFTISRDNAKNTVYLQMNSLKPEDTAVYYCARRGVWGVTYSRLYHWGQGTLVTVSS” as the sequence, how does the “polyreactivity (PSR sort gate)” value read?
The value was “high polyreactivity”.

For “QVQLVESGGGLVQAGGSLRLSCAASGFTFFGYAMGWYRQAPGKERELVATISDTGGSTYADSVKGRFTISRDNAKNTVYLQMNSLKPEDTAVYYCNARSVFYSMDYWGQGTQVTVSS”, which “polyreactivity (PSR sort gate)” value is on record?
The value was “low polyreactivity”.

Which “polyreactivity (PSR sort gate)” value does the source give for “QVQHVESGGGLDQAGGSLRLSCAASGFTFVFNAMGWYRQAPGKERELVATITNGGSTYYADSVKGRFTISRDNAKNTVYLQMNSLKPEDTAVYYCAKTWFAYRDYDFWGQGTQVTVSS” here?
The value was “high polyreactivity”.

For “QVQLLESGGGLVQAGGSLRLSCAASGRTFTTYTMGWYRQAPGKERELVAAIRSGGRTYYADSVKGRFTISRDNAKNTVYLQMNSLKPEDTAVYYCNARDCVRNVYAYAGRQYDYWGQGTQVTVSS”, which “polyreactivity (PSR sort gate)” value is on record?
Its value is “low polyreactivity”.

For “QVQLVESGGGLVQAGGSLRLSCAASGSIFQSNAMGWYRQAPGKERELFAAISWNTGSTYADSVKGRFTISRDNAKNTVYLQMNSLKPEDTAVYYCAADRSHAYYRKNRVDYWGQGTQVTVSS”, which “polyreactivity (PSR sort gate)” value is on record?
The value was “low polyreactivity”.

For “QVQLVESGGGLVQAGGSLRLSCAASGRIFRPYAMGWYRQAPGKERELVARINGSGGSTYYADSVKGRFTISRDTAKNTVYFQMNSLKPEDTAVYYCNVRRIIRYLGYTHTKISWLDYWGQGTQVTVSS”, which “polyreactivity (PSR sort gate)” value is on record?
The value was “high polyreactivity”.
